Data on 1 molecule can be found in patent publication US20130196377A1 (SAMSUNG ELECTRONICS, published 2013).

The target of this experiment is T1, human EGFR extracellular domain (Prospec) (human, UniProt P00533 25-645).
T1 construct: extracellular domain; Bought protein; also called epidermal growth factor receptor
As to the kind of experiment: SPR (Biacore T100); antibody captured on anti-human IgG CM5 chip, EGFR extracellular domain 6.25-100 nM as analyte; 1:1 Langmuir model.

Source text: 1× HBS-EP (GE healthcare) was used as a running buffer and a dilution buffer. About 5,000 RU (response unit) of an Anti-human IgG antibody (Jackson Immuno Research) were immobilized on a surface of a CM5 chip (GE healthcare) by standard amine-coupling. […] A contact time (association phase) was 180 seconds, and a separation time (washing with running buffer) was 600 seconds. After each binding cycle was terminated, Glycine-HCl pH 2.0 (GE healthcare) as a regeneration solution was flown onto the chip at a flow rate of 50 μL/min for 1 minute to remove the combined antigen and antibody from the chip. A sensorgram was obtained therefrom such that a fitting process was performed in BIA evaluation software by using a 1:1 Langmuir binding model for the EGFR case and by using a bivalent analyte model for the VEGF case.

B1: (E2)2, monospecific antibody recognizing the EGFR (antibody, human IgG1, V domains shown)
VL: DIQMTQSPTSLSASVGDRVTITCRASQWIGNLLDWYQQKPGEAPKLLIYYASFLQSGVPSRFSGGGFGTDFTLTISSLQPEDFATYYCQQANPAPLTFGQGTKVEIKR
notes: Homodimer of E2-hinge-Fc chains, inferred from the label (E2)2
In the case of B1, binding was put at a Kd of 4.91 nM.
